This is an account of results in patent US20200283521A1 (GRANULAR THERAPEUTICS, published 2020).

Test [1] concerns the target T1, human C-KIT, full length, on cells (human, UniProt P10721 26-976).
T1 construct: full-length cDNA stably transfected in CHO-K1; also used here for endogenous C-KIT of TF-1 cells; also called human C-KIT+ CHO-K1 cells; C-KIT on TF-1 cells
Kind of test: flow cytometry, CHO-K1 transfectants.

For a further test, the target named is T2, human C-KIT-Fc (human, UniProt P10721 26-524).
T2 construct: also called biotinylated human C-KIT-Fc; not shown: Fc part not described
Briefly: direct titration ELISA on coated C-KIT-Fc, IgG1 format. In general terms: ELISA stands for enzyme-linked immunosorbent assay.

B1: MH5.33 (antibody, IgG1, V domains shown)
VH: QVQLVQSGAEVKKPGASVKVSCKASGYTFTNYYMNWVRQAPGQGLEWMGRIYPASGNTYYAQKFQGRVTMTRDTSTSTVYMELSSLRSEDTAVYYCARGVWYYDYWGQGTLVTVSS
VL: DIQMTQSPSSLSASVGDRVTITCRASQGIRTNLAWFQQKPGKAPKSLIYAASSLQSGVPSRFSGSGSGTDFTLTISSLQPEDFATYYCQQYANYPRTFGGGTKVEIK
notes: IgG1
Take B1: the binding result in test [1] is recorded as “binds”; with human C-KIT-Fc it was “no binding (tested: 10 µg/ml)”.
